From the supplement of paper PMC11780869

System: Bacillus subtilis
Assay: cleaved RNA product abundance (RNA/gDNA barcode ratio) relative to median wild-type variant (ratio to wild type); higher = more accumulation of the downstream cleavage product
In short: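 Sequencing of barcodes from gel-selected, reverse-transcribed cleaved RNA and from genomic DNA, with UMI collapsing, yielded a per-construct RNA:gDNA ratio. Scaled to the median construct with the unmutated site, this ratio is the cleaved product abundance. The barcoded reporters (truncated aprE or tetM mRNAs with mutagenized RNase Y cleavage-site windows) were integrated into the B. subtilis chromosome, and cultures grew in LB at 37°C from OD600 0.0003 to 0.3.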

[1] = experiment (reporter, strain, medium): exp 8a: truncated aprE reporter, strain BJT201 with 2% xylose (RNase J1 expressed), cleavage site: glnRA (positions -5 to +31 mutated)
[2] = experiment (reporter, strain, medium): exp 2b: truncated aprE reporter, strain BJT200, cleavage site: cggR-gapA (positions -7 to +36 mutated)
[3] = experiment (reporter, strain, medium): exp 4a: truncated aprE reporter, strain BJT201 with 2% xylose (RNase J1 expressed), cleavage site: cggR-gapA (positions -7 to +36 mutated)

CGACATGTCCCGCTTCTTTCATTAATCCGTGAACAACTGTTTTGCTATATACATTTACCTTTTAAGAGGAGGAAT
cleaved RNA product abundance [1]: 0.232

ACAGACGAAGGAGCCGCAAAGAAGTAATTAAGGGATGCATAATCCCTCAATATAAATATCTCTCACTTATTTAAA
cleaved RNA product abundance [2]: 0.186
cleaved RNA product abundance [3]: 0.288

ACAGACGAAGGAGCCGCAAAGAAATTATTAAGGGATGAATAATCCCTCAACATAAATATCTCTCACTTATTTAAA
cleaved RNA product abundance [3]: 0.234

ACAGACGAAGGAGCCGCAAAGAAGTTGTTAAGGGATGAATAATTCCTCAATATAAATATCTCTCACTTATTTAAA
cleaved RNA product abundance [3]: 0.404

ACAGACGAAGGAGCCGCAAAGAAGTTATCAAGAGATGAATAATCCCTCAATATAAATATCTCTCACTTATTTAAA
cleaved RNA product abundance [2]: 0.0893
cleaved RNA product abundance [3]: 0.116

ACAGACGAAGGAGCCGCAAAGAAGTTACTAAGTGATGAATAATCCCTCAATATAAATATCTCTCACTTATTTAAA
cleaved RNA product abundance [2]: 0.0989
cleaved RNA product abundance [3]: 0.102

CGACATGTCCCGCTTCTTTCATTAATCCTTTAGCAACTGGTTTGCTATATACATTTACCTTTTAAGAGGAGGAAT
cleaved RNA product abundance [1]: 0.306

ACAGACGAAGGAGCCGCATAAAAGTTATTAAGGCATGAATAATCCCTCAATATAAATATCTCTCACTTATTTAAA
cleaved RNA product abundance [3]: 0.0533

CGACATGTCCCGCTTCTTTCATTAATCCGTTAGCAACATTTTTGCTATATACATTTACCTTTTAAGAGGAGGAAT
cleaved RNA product abundance [1]: 1.12

ACAGACGAAGGAGCCGCAATGAAGTTATTAAGGGATAAATAATCCCTCAATATAAATATCTCTCACTTATTTAAA
cleaved RNA product abundance [3]: 0.659

CGACATGTCCCGCTTCTTTCATTAATCCGTTATCAAATGTTATGTTATATACATTTACCTTTTAAGAGGAGGAAT
cleaved RNA product abundance [1]: 0.413

CGACATGTCCCGCTTCTTTCATTAATCCGTTTGCAACTCTTTTGCTATATACATTTACCTTTTAAGAGGAGGAAT
cleaved RNA product abundance [1]: 0.483

CGACATGTCCCGCTTCTTTCATTAATCCGTTCACAACTGTTTTGCTATATACATTTACCTTTTAAGAGGAGGAAT
cleaved RNA product abundance [1]: 0.224

ACAGACGAAGGAGCCGCAAAGAAGTTATTAAGGGATGAATAATCCCTAAATATAAACATCTCTCACTTATTTAAA
cleaved RNA product abundance [2]: 0.509
cleaved RNA product abundance [3]: 0.57

ACAGACGAAGGAGCCGCAAAGAAGTTATTAAGGGATGAATAATCCCTCAATATAAACATTTCTCACTTATTTAAA
cleaved RNA product abundance [2]: 0.752

CGACATGTCCCGCTTCTTTCATTAATCCGTTAGCAACAGTTTTGCTATATAAATTTACCTTTTAAGAGGAGGAAT
cleaved RNA product abundance [1]: 0.69

ACAGACGAAGGAGCCGCAAAGAAGTTATTAAGGAATGAATAATCCCTCAATATCAATATCTCTCACTTATTTAAA
cleaved RNA product abundance [3]: 0.0389

CGACATGTCCCGCTTCTTTCATTAATCCATTAGAAACTGTTTTGCTATATACATTTACCTTTTAAGAGGAGGAAT
cleaved RNA product abundance [1]: 0.244

ACAGACGAAGGAGCCGCAAAGAAGTTATTAAGGGCTGAATAATCCCCCAATATAAATATCTCTCACTTATTTAAA
cleaved RNA product abundance [3]: 0.157

ACAGACGAAGGAGCCGCAAAGCAGTTATTAAGGGATGCATAATCCCTCAATATAAATATCTCTCACTTATTTAAA
cleaved RNA product abundance [2]: 0.0725

ACAGACGAAGGAGCCGCAAAGAAGTTATTAAGGGATGAATAATCCCTCAACATAAAAATCTCTCACTTATTTAAA
cleaved RNA product abundance [2]: 0.242
cleaved RNA product abundance [3]: 0.234

ACAGACGAAGGAGCCGCATAGAAGTTATTAAGGGATGAATAATCCCCCAATATAAATATCTCTCACTTATTTAAA
cleaved RNA product abundance [2]: 0.247
cleaved RNA product abundance [3]: 0.319

ACAGACGAAGGAGCCGCAAAGAAGATATTAAGGGTTGAATAATCCCTCAATATAAATATCTCTCACTTATTTAAA
cleaved RNA product abundance [2]: 0.43

ACAGACGAAGGAGCCGCAAAAAAGTTATTAAGGGATGAATAATCCCTCGATATAAATATCTCTCACTTATTTAAA
cleaved RNA product abundance [2]: 0.396
cleaved RNA product abundance [3]: 0.555

ACAGACGAAGGAGCCGCAAAGAAGTTATCAAGGGATGAATAATCCCTAAATATAAATATCTCTCACTTATTTAAA
cleaved RNA product abundance [3]: 0.333

CGACATGTCCCGCTTCTTTCATTAATCCGTTAGAAACTTTTTTGCTATATACATTTACCTTTTAAGAGGAGGAAT
cleaved RNA product abundance [1]: 0.287

CGACATGTCCCGCTTCTTTCATTAATACGTTAGTAACTGTTTTGCTAAATACATTTACCTTTTAAGAGGAGGAAT
cleaved RNA product abundance [1]: 0.285

ACAGACGAAGGAGCCGCAAAGAAGTTATTAAGGCATGAACAATCCCTCAATATAAATATCTCTCACTTATTTAAA
cleaved RNA product abundance [3]: 0.0684

CGACATGTCCCGCTTCTTTCATTATTCCGTTAGTAACTGTTTTGCTATATACATTTACCTTTTAAGAGGAGGAAT
cleaved RNA product abundance [1]: 0.651

CGACATGTCCCGCTTCTTTCATTAATACGTTTGCAACTGTTTTGCTATATACATTTACCTTTTAAGAGGAGGAAT
cleaved RNA product abundance [1]: 0.769

CGACATGTCCCGCTTCTTTCATTACTCCGTTAGCAACTGTTTTGCTATATATATTTACCTTTTAAGAGGAGGAAT
cleaved RNA product abundance [1]: 1.44

CGACATGTCCCGCTTCTTTCATTAATCCGTTAGCAACTGTTTTGCTATATACTTTTACCATTTAAGAGGAGGAAT
cleaved RNA product abundance [1]: 0.769

ACAGACGAAGGAGCCGCACAGAAGTTATTAAGGGATGAATAATCCCTCAACATAAATATCTCTCACTTATTTAAA
cleaved RNA product abundance [2]: 0.198
cleaved RNA product abundance [3]: 0.294

ACAGACGAAGGAGCCGCAAAGAAGTTATTAAGGGATGAATATTGCCTCAATATAAATATCTCTCACTTATTTAAA
cleaved RNA product abundance [3]: 0.107

ACAGACGAAGGAGCCGCATAGAAGTAATTAAGGGATGAATAATCCCTCAATATAAATATCTCTCACTTATTTAAA
cleaved RNA product abundance [3]: 0.356

CGACATGTCCCGCTTCTTTCATTAATCCTTTAGCAACTGTTTTGCTATATACATTTACCATTTAAGAGGAGGAAT
cleaved RNA product abundance [1]: 0.837

ACAGACGAAGGAGCCGCAAAGAAGTTATTAAGGTATGAATAATCCCTAAATATAAATATCTCTCACTTATTTAAA
cleaved RNA product abundance [2]: 0.109
cleaved RNA product abundance [3]: 0.168

CGACATGTCCCGCTTCTTTCATTAATCCGTTAGTATCTGTTTTGCTATATACATTTACCTTTTAAGAGGAGGAAT
cleaved RNA product abundance [1]: 0.422

ACAGACGAAGGAGCCGCAAGGAAGTAATTAAGGGATGAATAATCCCTCAATATAAATATCTCTCACTTATTTAAA
cleaved RNA product abundance [3]: 0.182

ACAGACGAAGGAGCCGCAAAGAACTTATTAAGGGACGAATAATCCCTCAATATAAATATCTCTCACTTATTTAAA
cleaved RNA product abundance [2]: 0.375
cleaved RNA product abundance [3]: 0.389

ACAGACGAAGGAGCCGCAAAGAAGTTATTAAAGGATGACTAATCCCTCAATATAAATATCTCTCACTTATTTAAA
cleaved RNA product abundance [2]: 0.0975
cleaved RNA product abundance [3]: 0.133

ACAGACGAAGGAGCCGCAAAGAAGTGATTAAGGGATGAATAATCCCTTAATATAAATATCTCTCACTTATTTAAA
cleaved RNA product abundance [3]: 0.74

ACAGACGAAGGAGCCGCAAAGACGTTATTAAGGGATGAATAATCCCTCAAAATAAATATCTCTCACTTATTTAAA
cleaved RNA product abundance [2]: 0.31

ACAGACGAAGGAGCCGCAAAGAAGTTATTAAGGCATGAATAATTCCTCAATATAAATATCTCTCACTTATTTAAA
cleaved RNA product abundance [2]: 0.107
cleaved RNA product abundance [3]: 0.133

ACAGACGAAGGAGCCGCAAAGAAGTTTTTAAGGGATGAATAATCCCTCAATATAAACATCTCTCACTTATTTAAA
cleaved RNA product abundance [3]: 0.208

ACAGACGAAGGAGCCGCAAATAAGTTATTAATGGATGAATAATCCCTCAATATAAATATCTCTCACTTATTTAAA
cleaved RNA product abundance [2]: 0.123
cleaved RNA product abundance [3]: 0.184

ACAGACGAAGGAGCCGCGAAGAAGTTATTAAGGGATGAATAATCGCTCAATATAAATATCTCTCACTTATTTAAA
cleaved RNA product abundance [3]: 0.134

ACAGACGAAGGAGCCGCAAAGAAATTATTAAGAGATGAATAATCCCTCAATATAAATATCTCTCACTTATTTAAA
cleaved RNA product abundance [2]: 0.121
cleaved RNA product abundance [3]: 0.112

ACAGACGAAGGAGCCGCAAATAAGTTATTAAGGAATGAATAATCCCTCAATATAAATATCTCTCACTTATTTAAA
cleaved RNA product abundance [2]: 0.0785
cleaved RNA product abundance [3]: 0.129

CGACATGTCCCGCTTCTTTCATTAATCCATTAGCAACTGATTTGCTATATACATTTACCTTTTAAGAGGAGGAAT
cleaved RNA product abundance [1]: 0.89

CGACATGTCCCGCTTCTTTCATTAATCCGTTAGCAACTGTTTTGCTATATACATTTACAATTTAAGAGGAGGAAT
cleaved RNA product abundance [1]: 1.08

ACAGACGAAGGAGCCGCAAAGAAGTTATTATGGGATGAATAATCCTTCAATATAAATATCTCTCACTTATTTAAA
cleaved RNA product abundance [2]: 0.315
cleaved RNA product abundance [3]: 0.382

CGACATGTCCCGCTTCTTTCATTAATCCGTTAGCAACTGTTTCGCTATATACATGTACCTTTTAAGAGGAGGAAT
cleaved RNA product abundance [1]: 0.361

ACAGACGAAGGAGCCGCAAAGAAATTATTAAGGGATGAATAATCTCTCAATATAAATATCTCTCACTTATTTAAA
cleaved RNA product abundance [3]: 0.476

CGACATGTCCCGCTTCTTTCATTAATCCGTTAGCAACTGATTTGCTTTATACATTTACCTTTTAAGAGGAGGAAT
cleaved RNA product abundance [1]: 0.282

ACAGACGAAGGAGCCGTAAAGAAGTTATTAAGGGATGAATAATCCCTCAATATAAATATCTCTCACTTATTTAAA
cleaved RNA product abundance (experiment (reporter, strain, medium): exp 6: tetM reporter, strain 168, cleavage site: cggR-gapA (positions -7 to +36 mutated)): 1.09

CGACATGTCCCGCTTCTTTCATTAATCCGTTAGCAACAGTTTTGCTATATACATTTTCCTTTTAAGAGGAGGAAT
cleaved RNA product abundance [1]: 0.423

ACAGACGAAGGAGCCGCATAGAAGTTAATAAGGGATGAATAATCCCTCAATATAAATATCTCTCACTTATTTAAA
cleaved RNA product abundance [2]: 0.239
cleaved RNA product abundance [3]: 0.304

CGACATGTCCCGCTTCTTTCATTAATCCGTTAGCAACTATTTTGCTATAAACATTTACCTTTTAAGAGGAGGAAT
cleaved RNA product abundance [1]: 1

ACAGACGAAGGAGCCGCAAAGAAGTTAATAAGGAATGAATAATCCCTCAATATAAATATCTCTCACTTATTTAAA
cleaved RNA product abundance [2]: 0.103
cleaved RNA product abundance [3]: 0.165
